{
  "source": "paper PMC7979749",
  "about": "“Structural basis of the dynamic human CEACAM1 monomer-dimer equilibrium” (Communications Biology, 2021)",
  "key": {"TIM-3 IgV (Homo sapiens)": {"target": "TIM-3 IgV (Homo sapiens) (UniProt Q8TDQ0)", "sequence (Q8TDQ0 22-124)": "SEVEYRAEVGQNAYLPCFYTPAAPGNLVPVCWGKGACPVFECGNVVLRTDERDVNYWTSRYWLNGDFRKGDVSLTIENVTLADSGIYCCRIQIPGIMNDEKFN", "conditions": "cited from earlier work"}, "[1]": {"target": "CEACAM1 IgV (Homo sapiens) (UniProt P13688)", "conditions": "cited from earlier work"}, "[2]": {"target": "human CEACAM1 IgV domain, N97A mutant (human) (UniProt P13688)", "test": "NMR titration; 15N-HSQC spectra at varying protein concentration (N97A 16-500 μM; WT 10 μM and 1 mM); 10 mM HEPES, 50 mM NaCl, pH 7.0, 25 °C; dimer to monomers; rough estimate from peak trajectories of Q44 and A49"}, "[3]": {"target": "the molecule itself", "test": "SEC-MALS; samples at 100 μM injected onto TSK-gel Bioassist G4SWxl, 10 mM HEPES pH 7.4, 150 mM, 0.5 mL/min; self-association, monomer to dimer"}, "[4]": {"target": "the molecule itself", "test": "crystal structure; mutant proteins concentrated to 10 mg/ml (exceeding 800 μM); molecular replacement with PDB 4QXW; self-association in the asymmetric unit"}},
  "data": [
    {"molecule": "CEACAM1 IgV (from UniProt P13688)", "values": [
      {"measurement": "Kd", "setting": "TIM-3 IgV (Homo sapiens)", "result": 2.5, "unit": "µM"},
      {"measurement": "Kd", "setting": "[1]", "result": 0.45, "unit": "µM"}
    ]},
    {"molecule": "human CEACAM1 IgV domain, N97A mutant (from UniProt P13688 35-141) (domain or fragment)", "values": [
      {"measurement": "Kd", "setting": "[2]", "result": "> 1000", "unit": "µM"}
    ]},
    {"molecule": "human CEACAM1 IgV domain, wildtype (domain or fragment, Carcinoembryonic antigen-related cell adhesion molecule 1 (CEACAM1), human, N-terminal IgV domain; NMR samples were 15N/13C or 15N/13C/2H labelled; also called hCEACAM1 WT IgV; WT; source: isotope-labelled samples expressed from E. coli in M9 minimal medium, purified) AQLTTESMPFNVAEGKEVLLLVHNLPQQLFGYSWYKGERVDGNRQIVGYAIGTQQATPGPANSGRETIYPNASLLIQNVTQNDTGFYTLQVIKSDLVNEEATGQFHVY", "values": [
      {"measurement": "stoichiometry N", "setting": "[3]", "result": 2}
    ]},
    {"molecule": "human CEACAM1 IgV domain, V39A mutant (domain or fragment, unglycosylated; also called hCEACAM1 V39A) QLTTESMPFNVAEGKEVLLLVHNLPQQLFGYSWYKGERADGNRQIVGYAIGTQQATPGPANSGRETIYPNASLLIQNVTQNDTGFYTLQVIKSDLVNEEATGQFHVY", "values": [
      {"measurement": "binding result", "setting": "[3]", "result": "binds"}
    ]},
    {"molecule": "human CEACAM1 IgV domain, I91A mutant (domain or fragment, unglycosylated) QLTTESMPFNVAEGKEVLLLVHNLPQQLFGYSWYKGERVDGNRQIVGYAIGTQQATPGPANSGRETIYPNASLLIQNVTQNDTGFYTLQVAKSDLVNEEATGQFHVY", "values": [
      {"measurement": "binding result", "setting": "[4]", "result": "binds"}
    ]}
  ]
}
